Reference: ChEMBL document CHEMBL1156528, “Acetyl-lysine analog peptides as mechanistic probes of protein deacetylases” (J Biol Chem, 2007)

Columns and labels:
[1] = substrate: C[C@H](NC(=O)[C@H](CCCCNC(N)=O)NC(=O)CNC(=O)CNC(=O)[C@@H](NC(=O)[C@H](CO)NC(=O)[C@@H](N)CCCCN)[C@@H](C)O)C(=O)N1CCC[C@H]1C(=O)N[C@@H](CCCNC(=N)N)C(=O)N[C@@H](CCCCN)C(=O)N[C@@H](CCC(N)=O)C(=O)O; test: (§1) Activity of Saccharomyces cerevisiae Hst2
[2] = substrate: CC(=O)NCCCC[C@H](NC(=O)CNC(=O)CNC(=O)[C@@H](NC(=O)[C@H](CO)NC(=O)[C@@H](N)CCCCN)[C@@H](C)O)C(=O)N[C@@H](C)C(=O)N1CCC[C@H]1C(=O)N[C@@H](CCCNC(=N)N)C(=O)N[C@@H](CCCCN)C(=O)N[C@@H](CCC(N)=O)C(=O)O; test: as §1

B1: NAD-dependent protein deacetylase HST2 (Saccharomyces cerevisiae S288c), P53686 (protein)
chain: MSVSTASTEMSVRKIAAHMKSNPNAKVIFMVGAGISTSCGIPDFRSPGTGLYHNLARLKLPYPEAVFDVDFFQSDPLPFYTLAKELYPGNFRPSKFHYLLKLFQDKDVLKRVYTQNIDTLERQAGVKDDLIIEAHGSFAHCHCIGCGKVYPPQVFKSKLAEHPIKDFVKCDVCGELVKPAIVFFGEDLPDSFSETWLNDSEWLREKITTSGKHPQQPLVIVVGTSLAVYPFASLPEEIPRKVKRVLCNLETVGDFKANKRPTDLIVHQYSDEFAEQLVEELGWQEDFEKILTAQGGMGDNSKEQLLEIVHDLENLSLDQSEHESADKKDKKLQRLNGHDSDEDGASNSSSSQKAAKE
[1]
  Vmax: 1.3 s⁻¹
  kcat: 1.2 ×10⁻² /s
[2]
  kcat: 0.2 s⁻¹
